From patent US20110263454A1, “Methods of Identifying Functional Characteristics of Promoters, Transcription Modifying Proteins and Transcription Modulating Agents” (Salk Institute for Biological Studies, priority 2008, published 2011) come the findings set out here.

First the molecules themselves.
B1: Erb: Estrogen Receptor β (NR3A2, ERb), cDNA driver (protein, UniProt Q92731 1-530, looked up)
Estrogen receptor beta: MDIKNSPSSLNSPSSYNCSQSILPLEHGSIYIPSSYVDSHHEYPAMTFYSPAVMNYSIPSNVTNLEGGPGRQTTSPNVLWPTPGHLSPLVVHRQLSHLYAEPQKSPWCEARSLEHTLPVNRETLKRKVSGNRCASPVTGPGSKRDAHFCAVCSDYASGYHYGVWSCEGCKAFFKRSIQGHNDYICPATNQCTIDKNRRKSCQACRLRKCYEVGMVKCGSRRERCGYRLVRRQRSADEQLHCAGKAKRSGGHAPRVRELLLDALSPEQLVLTLLEAEPPHVLISRPSAPFTEASMMMSLTKLADKELVHMISWAKKIPGFVELSLFDQVRLLESCWMEVLMMGLMWRSIDHPGKLIFAPDLVLDRDEGKCVEGILEIFDMLLATTSRFRELKLQHKEYLCVKAMILLNSSMYPLVTATQDADSSRKLAHLLNAVTDALVWVIAKSGISSQQQSMRLANLLMLLSHVRHASNKGMEHLLNMKCKNVVPVYDLLLEMLNAHVLRGCKSSITGSECSPAEDSKSKEGSQNPQSQ
B2: ERR2: Estrogen Related Receptor β (NR3B2, ERRb), cDNA driver (protein, UniProt O95718 1-433, looked up)
Steroid hormone receptor ERR2: MSSDDRHLGSSCGSFIKTEPSSPSSGIDALSHHSPSGSSDASGGFGLALGTHANGLDSPPMFAGAGLGGTPCRKSYEDCASGIMEDSAIKCEYMLNAIPKRLCLVCGDIASGYHYGVASCEACKAFFKRTIQGNIEYSCPATNECEITKRRRKSCQACRFMKCLKVGMLKEGVRLDRVRGGRQKYKRRLDSESSPYLSLQISPPAKKPLTKIVSYLLVAEPDKLYAMPPPGMPEGDIKALTTLCDLADRELVVIIGWAKHIPGFSSLSLGDQMSLLQSAWMEILILGIVYRSLPYDDKLVYAEDYIMDEEHSRLAGLLELYRAILQLVRRYKKLKVEKEEFVTLKALALANSDSMYIEDLEAVQKLQDLLHEALQDYELSQRHEEPWRTGKLLLTLPLLRQTAAKAVQHFYSVKLQGKVPMHKLFLEMLEAKV
B3: CTF1: COUP-TF1 (NR2F1), cDNA driver (protein, UniProt P10589 1-423, looked up)
COUP transcription factor 1: MAMVVSSWRDPQDDVAGGNPGGPNPAAQAARGGGGGAGEQQQQAGSGAPHTPQTPGQPGAPATPGTAGDKGQGPPGSGQSQQHIECVVCGDKSSGKHYGQFTCEGCKSFFKRSVRRNLTYTCRANRNCPIDQHHRNQCQYCRLKKCLKVGMRREAVQRGRMPPTQPNPGQYALTNGDPLNGHCYLSGYISLLLRAEPYPTSRYGSQCMQPNNIMGIENICELAARLLFSAVEWARNIPFFPDLQITDQVSLLRLTWSELFVLNAAQCSMPLHVAPLLAAAGLHASPMSADRVVAFMDHIRIFQEQVEKLKALHVDSAEYSCLKAIVLFTSDACGLSDAAHIESLQEKSQCALEEYVRSQYPNQPSRFGKLLLRLPSLRTVSSSVIEQLFFVRLVGKTPIETLIRDMLLSGSSFNWPYMSIQCS
B4: ERR3: Estrogen Related Receptor γ (NR3B3, ERRg), cDNA driver (protein, UniProt P62508 1-458, looked up)
Estrogen-related receptor …: MDSVELCLPESFSLHYEEELLCRMSNKDRHIDSSCSSFIKTEPSSPASLTDSVNHHSPGGSSDASGSYSSTMNGHQNGLDSPPLYPSAPILGGSGPVRKLYDDCSSTIVEDPQTKCEYMLNSMPKRLCLVCGDIASGYHYGVASCEACKAFFKRTIQGNIEYSCPATNECEITKRRRKSCQACRFMKCLKVGMLKEGVRLDRVRGGRQKYKRRIDAENSPYLNPQLVQPAKKPYNKIVSHLLVAEPEKIYAMPDPTVPDSDIKALTTLCDLADRELVVIIGWAKHIPGFSTLSLADQMSLLQSAWMEILILGVVYRSLSFEDELVYADDYIMDEDQSKLAGLLDLNNAILQLVKKYKSMKLEKEEFVTLKAIALANSDSMHIEDVEAVQKLQDVLHEALQDYEAGQHMEDPRRAGKMLMTLPLLRQTSTKAVQHFYNIKLEGKVPMHKLFLEMLEAKV

One assay has as its system mNPY promoter. Put plainly: NHR-promoter luciferase screen, mNPY promoter. The format is cell-based, mouse. To be noted: Table 6d; luciferase activity relative to control (control = 1.00). The method in brief: (§1)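 CV-1 cells were co-transfected with 50 ng NHR (homodimer or NHR/RXR heterodimer), 100 ng promoter-luciferase construct and 50 ng LacZ. Luciferase was normalized to LacZ and to a no-NHR/no-ligand control.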
On to B1, for which the “Results of assays of transcription factor (+/- ligand) with mNPY” value (shortened to “Results of assays … with mNPY”) turned out to be 0.79.

As to B2, the “Results of assays … with mNPY” value was 1.02.

Consider B3, for which the “Results of assays … with mNPY” value is reported as 0.47.

Regarding B4, the “Results of assays … with mNPY” value is on record as 1.11.

Still in this assay, the particulars now being: mNPY promoter; HR component with or without ligand.
On to B1, for which the “Luc. act., normalized to lacZ” value is 66.5.

Regarding B2, the “Luc. act., normalized to lacZ” value is listed as 85.4.

In the case of B3, the “Luc. act., normalized to lacZ” value was 39.2.

As to B4, the “Luc. act., normalized to lacZ” value was 93.1.

Still in this assay, the particulars now being: mNPY promoter; HR component with or without ligand; relative to control.
B1: the “Normalized Luc. act., normalized to control” value is recorded as 0.8.

On to B2, for which the “Normalized Luc. act., normalized to control” value was found to be 1.0.

In the case of B3, the “Normalized Luc. act., normalized to control” value was found to be 0.5.

In the case of B4, the “Normalized Luc. act., normalized to control” value is recorded as 1.1.

In the next assay the test system is hPPARg1 promoter. Put plainly: NHR-promoter luciferase screen, hPPARg1 promoter. In kind it is cell-based, human. To be noted: PPARG1 promoter; hormone receptor with or without its ligand. The method in brief: as §1
As to B1, the “Luc. act., normalized to lacZ” value was determined as 45.3.

Turning to B2, the “Luc. act., normalized to lacZ” value came to 59.1.

Consider B3, for which the “Luc. act., normalized to lacZ” value came out at 39.7.

On to B4, for which the “Luc. act., normalized to lacZ” value is given as 63.7.

The same assay, now with this note: PPARG1 promoter; hormone receptor with or without its ligand; relative to control.
As to B1, the “Normalized Luc. act., normalized to control” value came to 0.7.

With B2, the “Normalized Luc. act., normalized to control” value turned out to be 0.9.

Consider B3, for which the “Normalized Luc. act., normalized to control” value came out at 0.6.

Take B4: the “Normalized Luc. act., normalized to control” value is listed as 0.9.

Staying with this assay, now noted: Table 6d; luciferase activity relative to control (control = 1.00).
Consider B1, for which the “Results of assays of transcription factor (+/- ligand) with hPPARg1” value (“Results of assays … with hPPARg1” for short) was determined as 0.66.

For the molecule B2, the “Results of assays … with hPPARg1” value is reported as 0.86.

In the case of B3, the “Results of assays … with hPPARg1” value is reported as 0.58.

As for B4, the “Results of assays … with hPPARg1” value amounted to 0.92.

In the next assay the test system is mLeptin promoter. Put plainly: NHR-promoter luciferase screen, mLeptin promoter. In kind it is cell-based, mouse. To be noted: Table 7; mLeptin. Put shortly: as §1
Take B1: the “Luc. act., normalized to lacZ” value was determined as 2.5 and the “Normalized Luc. act., normalized to control” value is 0.9.

As to B2, the “Luc. act., normalized to lacZ” value is 9.7 and the “Normalized Luc. act., normalized to control” value came out at 3.3.

Turning to B3, the “Luc. act., normalized to lacZ” value is 3.1 and the “Normalized Luc. act., normalized to control” value turned out to be 1.1.

Regarding B4, the “Luc. act., normalized to lacZ” value turned out to be 2.4 and the “Normalized Luc. act., normalized to control” value amounted to 0.8.

The same assay, now with this note: Table 6d; luciferase activity relative to control (control = 1.00).
For the molecule B1, the “Results of assays of transcription factor (+/- ligand) with mLeptin” value (shortened to “Results of assays … with mLeptin”) is given as 0.86.

As to B2, the “Results of assays … with mLeptin” value is 3.30.

Turning to B3, the “Results of assays … with mLeptin” value is on record as 1.07.

For B4, the “Results of assays … with mLeptin” value is 0.80.

Staying with this assay, now noted: mLeptin promoter-luciferase, NHR +/- ligand, control = 1.0.
For the molecule B2, the “luciferase/LacZ, mLeptin (selected results)” value is 3.3.

The test system of another assay is hPPARg2 promoter. Put plainly: NHR-promoter luciferase screen, hPPARg2 promoter. The format is cell-based, human. As to conditions: PPARG2 promoter; hormone receptor with or without its ligand. Put shortly:
as §1
Regarding B1, the “Luc. act., normalized to lacZ” value worked out at 2.3.

Consider B2, for which the “Luc. act., normalized to lacZ” value worked out at 3.2.

Take B3: the “Luc. act., normalized to lacZ” value is listed as 1.4.

In the case of B4, the “Luc. act., normalized to lacZ” value amounted to 2.1.

Still in this assay, the particulars now being: PPARG2 promoter; hormone receptor with or without its ligand; relative to control.
Take B1: the “Normalized Luc. act., normalized to control” value is on record as 1.1.

With B2, the “Normalized Luc. act., normalized to control” value was 1.6.

For B3, the “Normalized Luc. act., normalized to control” value came out at 0.7.

On to B4, for which the “Normalized Luc. act., normalized to control” value came to 1.0.

The same assay, now with this note: Table 6d; luciferase activity relative to control (control = 1.00).
For the molecule B1, the “Results of assays of transcription factor (+/- ligand) with hPPARg2” value (“Results of assays … with hPPARg2” below) turned out to be 1.13.

As for B2, the “Results of assays … with hPPARg2” value was 1.59.

Turning to B3, the “Results of assays … with hPPARg2” value turned out to be 0.71.

Consider B4, for which the “Results of assays … with hPPARg2” value is 1.04.

A further assay relates to mPer1 promoter. Kind of assay: NHR-promoter luciferase screen, mPer1 promoter. As to conditions: Per1 promoter reporter; co-transfected HR, with or without its ligand. In kind it is cell-based, mouse. Put shortly:
as §1
Take B1: the “Luc. act., normalized to lacZ” value turned out to be 79.1.

As to B2, the “Luc. act., normalized to lacZ” value stood at 328.2.

As for B3, the “Luc. act., normalized to lacZ” value is reported as 283.8.

For the molecule B4, the “Luc. act., normalized to lacZ” value was found to be 226.8.

Staying with this assay, now noted: Per1 promoter reporter; co-transfected HR, with or without its ligand; relative to control.
As for B1, the “Normalized Luc. act., normalized to control” value is listed as 0.5.

For B2, the “Normalized Luc. act., normalized to control” value came out at 2.3.

Regarding B3, the “Normalized Luc. act., normalized to control” value is reported as 2.0.

B4: the “Normalized Luc. act., normalized to control” value is given as 1.6.

The assay is the same for the next values; noted with them: mPer1 promoter-luciferase, CV-1 cells, NHR +/- ligand, control = 1.00.
Take B1: the “luciferase activity normalized to lacZ activity and to a control, mPer1” value (from here on “luciferase activity normalized”) is listed as 0.55.

Consider B2, for which the “luciferase activity normalized” value is reported as 2.28.

For the molecule B3, the “luciferase activity normalized” value was found to be 1.97.

On to B4, for which the “luciferase activity normalized” value is 1.58.
